According to paper PMC4501562, “Vpu Exploits the Cross-Talk between BST2 and the ILT7 Receptor to Suppress Anti-HIV-1 Responses by Plasmacytoid Dendritic Cells” (PLoS Pathogens, 2015):

Assays:
[1] = biological target: ILT7 on the ILT7+ NFAT-GFP reporter mouse cell line (CT550) (human) (UniProt P59901)
[2] = biological target: T1, baculovirus-expressed soluble ILT7 (residues 24 to 435) (human, UniProt P59901 24-435); test: SPR; Biacore 3000; GST-BST2 covalently immobilised on a CM5 chip by amine coupling (6550 RU); bacILT7 serially diluted and passed over at 10 ul/min; running buffer HBS-PE (10 mM HEPES pH 7.5, 150 mM NaCl, 3 mM EDTA, 0.005% Tween-20); GST-coated reference cell subtracted; 1:1 Langmuir model, local Rmax; details: both partners purified
T1 construct: immunoglobulin-like transcript 7 (ILT7, LILRA4, CD85g), human, residues 24 to 435, from a synthetic codon-optimized gene; Cloned into the transfer vector pFL and transposed into the EMBacY bacmid; also called bacILT7; LILRA4
T1 sequence (P59901 24-435): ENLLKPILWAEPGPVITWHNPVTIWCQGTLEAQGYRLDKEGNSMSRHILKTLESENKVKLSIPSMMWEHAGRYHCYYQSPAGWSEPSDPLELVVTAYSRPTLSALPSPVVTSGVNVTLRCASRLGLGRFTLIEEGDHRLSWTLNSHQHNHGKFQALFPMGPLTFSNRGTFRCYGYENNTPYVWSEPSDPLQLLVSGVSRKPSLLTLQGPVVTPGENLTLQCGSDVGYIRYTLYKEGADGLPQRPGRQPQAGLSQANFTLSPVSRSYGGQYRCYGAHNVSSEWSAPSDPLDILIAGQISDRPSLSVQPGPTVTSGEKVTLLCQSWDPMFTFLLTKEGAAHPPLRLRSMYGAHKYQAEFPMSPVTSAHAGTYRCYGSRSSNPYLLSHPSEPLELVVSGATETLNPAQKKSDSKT

Sequence of ILT7 on the ILT7+ NFAT-GFP reporter mouse cell line (CT550) (human) (P59901 24-499): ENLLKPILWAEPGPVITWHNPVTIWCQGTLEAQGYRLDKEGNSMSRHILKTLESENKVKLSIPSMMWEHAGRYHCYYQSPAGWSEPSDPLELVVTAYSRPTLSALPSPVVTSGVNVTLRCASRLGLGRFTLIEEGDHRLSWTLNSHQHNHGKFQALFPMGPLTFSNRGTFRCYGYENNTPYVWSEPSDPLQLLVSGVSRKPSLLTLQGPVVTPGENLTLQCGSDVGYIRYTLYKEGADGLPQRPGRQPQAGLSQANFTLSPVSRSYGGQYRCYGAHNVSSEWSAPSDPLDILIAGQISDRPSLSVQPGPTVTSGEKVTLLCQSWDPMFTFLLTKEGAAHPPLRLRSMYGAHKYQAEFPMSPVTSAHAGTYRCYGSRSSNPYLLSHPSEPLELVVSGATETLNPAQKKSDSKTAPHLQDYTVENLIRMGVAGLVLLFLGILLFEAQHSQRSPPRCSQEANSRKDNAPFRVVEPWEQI
Sequence of WT BST2 expressed on HEK293T cells (Q10589 1-161): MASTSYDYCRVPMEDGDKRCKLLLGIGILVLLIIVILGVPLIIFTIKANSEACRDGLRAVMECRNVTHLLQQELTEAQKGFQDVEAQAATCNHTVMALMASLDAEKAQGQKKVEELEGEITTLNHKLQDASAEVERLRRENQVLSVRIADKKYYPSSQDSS

Row | Molecule | percentage of NFAT-GFP positive ILT7+ reporter cells after co-culture with BST2-expressing HEK293T cells (no HIV) [1] [%] | percentage of NFAT-GFP positive ILT7+ reporter cells after co-culture with BST2-expressing HEK293T cells producing WT HIV (Vpu present) [1] [%] | percentage of NFAT-GFP positive ILT7+ reporter cells after co-culture with BST2-expressing HEK293T cells producing dU HIV (no Vpu) [1] [%] | Kd [2] [µM] | koff [2] [s⁻¹] | kon [2] [M⁻¹ s⁻¹]
1 | WT BST2 expressed on HEK293T cells (from UniProt Q10589 1-161) (natural protein) | 99 | 74 | 48 |  |  | 
2 | recombinant GST-tagged ectodomain of BST2 (residues 47 to 159) (domain or fragment, BST2/Tetherin (CD317), human, extracellular domain, residues 47 to 159; a region common to the short and the long BST2 isoforms; Cloned into the pBADM30 expression vector as a His-tagged GST-N-terminus fusion protein; also called GST-BST2; BST2/Tetherin; not shown: GST, N-terminal, kept) KANSEACRDGLRAVMECRNVTHLLQQELTEAQKGFQDVEAQAATCNHTVMALMASLDAEKAQGQKKVEELEGEITTLNHKLQDASAEVERLRRENQVLSVRIADKKYYPSSQD |  |  |  | 2.33 | 0.00308 | 1250
